Measured values: US20260176701A1 (BRIGHAM AND WOMEN S HOSPITAL, published 2026)

T1: recombinant human ORF1p (LINE-1 open reading frame 1 protein, L1RP) (human, UniProt Q9UN81 1-338)
T1 construct: Expressed in E. coli, tag cleaved, monodisperse homotrimer; Immobilized on the CM5 chip in SPR; also called trimeric ORF1p
T1 sequence: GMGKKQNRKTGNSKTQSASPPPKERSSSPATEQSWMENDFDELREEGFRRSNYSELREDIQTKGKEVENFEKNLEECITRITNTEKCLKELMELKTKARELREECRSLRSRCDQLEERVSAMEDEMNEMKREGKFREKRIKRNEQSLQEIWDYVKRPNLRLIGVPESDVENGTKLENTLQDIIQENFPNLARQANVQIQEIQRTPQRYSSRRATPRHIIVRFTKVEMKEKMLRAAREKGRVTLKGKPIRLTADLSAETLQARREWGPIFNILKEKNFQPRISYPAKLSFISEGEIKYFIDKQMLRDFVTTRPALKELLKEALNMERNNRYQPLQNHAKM


Biological target: T1, recombinant human ORF1p (LINE-1 open …)
Assay: Simoa sandwich, recombinant ORF1p at 40 pg/mL in diluent buffer, signal/background heat map; capture on the x axis, detector on the y axis
Experimental: ORF1p Simoa assays. Simoa assays were performed on an HD-X Analyzer (Quanterix Corp.), with all assay reagents and consumables loaded onto the instrument according to the manufacturer's instructions. 250,000 capture beads and 250,000 helper (non-conjugated) beads were used in each Simoa assay. A three-step assay configuration was used for the first- and second-generation assays, consisting of a 15-minute target capture step (incubation of capture beads with 100 μL sample), 5-minute incubation with detector reagent (0.3 μg/mL for both first- and second-generation assays), and 5-minute incubation with streptavidin-β-galactosidase (150 pM for first-generation assay; 300 pM for second-generation assays). The beads were washed with System Wash Buffer 1 (Quanterix Corp.) after each assay step. Upon the final wash cycle, the beads were loaded together with the fluorogenic enzyme substrate resorufin β-D-galactopyranoside into a 216,000-microwell array, which was subsequently sealed with oil. Automated imaging and counting of “on” and “off” wells and calculation of average enzyme per bead (AEB) were performed by the instrument. Calibration curves were fit using a 4PL fit with a 1/y² weighting factor, and the limit of detection (LOD) was determined as three standard deviations above the blank.
Signal/background was also determined for a number of the pairs by Simoa using recombinant ORF1p protein in diluent buffer; the results are shown in FIG. 15. When the rabbit monoclonal antibodies were used as capture and detector, the background was high. The best combinations were the rabbit monoclonal antibodies as capture/Ab6 detector; Nb5-5 capture/rabbit monoclonal antibodies detector; and 4H1 capture/rabbit monoclonal antibody detector pairs.

Row | binding result | Binder
1 | binds | 42D10 (antibody, V domains shown, Rabbit monoclonal antibody; also called 42D10-1) VH: QSVEESGGRLVTPGTPLTLTCTVSGFSLSSYAMTWVRQAPGKGLEWIGYIYAGGIADYANWAKGRFTISKTSTTVDLTITSPTTEDTATYFCAREGDSDDYVYLSLWGPGTLVTVSS VL: ALVMTQTPSSVSAAVGGTVTINCQASQSIVGYLAWYQQKPGQPPKLLIYRASTLASGVSSRFKGSGSGTEFTLTISGVQCADAATYYCQQGYINSNIDNTFGGGTEVVVK
2 | binds | 61A11 (antibody, V domains shown, Rabbit monoclonal antibody; also called 61A11-1) VH: QSVEESGGRLVTPGTPLTLTCTVSGIDLSSYVMGWVRQAPGKGLDWIGMIDTHDDTYFAPWARGRFTISRTSSTTVDLKVASTTTEDTATYFCAGNLALWGRGTLVTVSS VL: AQVLTQTPSPVSVAVGGTVTISCQSSQSVSSDNWLGWYQQKPGQPPKLLIYRASKLASGVSSRFKGSGSGTQFILTISDLECDDAATYYCAGGYSGSIIAFGGGTEVVVK
3 | binds | 36D12 (antibody, V domains shown, Rabbit monoclonal antibody; also called 36D12-1) VH: QSVEESGGRLVTPGTPLTLTCTVSGFSLSTYAMGWFRQAPGKGLEWIGTIWSGAFTDYANWVNGRFTISKTSTTVDLKITSPTTEDTATYFCAREADSDLYTYFKLWGPGTLVTVSS VL: AYDMTQTPASVEVAVGGTVTLKCQASESIEIYLAWYQQKPGQPPKLLVYDASTLASGVPSRFKGSGSGTQFTLTISGVECADAATYYCQQGYRSDNVHNVFGGGTEVVVK

The remaining lines, values behind:

Row | Binder | binding result
4 | 34H7 (antibody, V domains shown, Rabbit monoclonal antibody; also called 34H7-1; 37H7) VH: QSLEESGGDLVKPGASLTLTCTASGFSLNNYVMYWVRQAPGKGLESIACIYTGSGTTYYATWAKGRFTISKTSSTTVTLQMTSLTAADTATYFCARRTYTSDSYAGSFNLWGPGTLVTVSS VL: AYDMTQTPASVSEPVGGTVTIKCQASQSIGSNLAWYQQKPGQRPKLLIYAASYLASGAPSRFKGSGSGTEFTLTISGVQCDDAATYYCQQGWSSSDVDSTFGGGTEVVVK | binds
5 | 34C5 (antibody, V domains shown, Rabbit monoclonal antibody; also called 34C5-1) VH: QSVEESGGRLVKPDESLTLTCTVSGFSLSAYEMGWVRQAPGKGLEWIAAISTGDTPYYATWTKGRFTISRASSTTVDLKMTSPTTEDTATYFCARYGHNYEYVFDLWGQGTLVTVSS VL: AYDMTQTPASVSAAVGGTVTINCQASQSIGSYLSWYQQKPGQPPKLLIYSASTLASGVPSRFSGSGYGTEFTLTIGGVQCDDAAAYYCQQGESIGSVHNVFGGGTEVVVA | binds
6 | 33A8 (antibody, V domains shown, Rabbit monoclonal antibody; also called 33A8-1) VH: QSLEESGGGLVQPEGSLTLTCKASGFSFINNNHICWVRQAPGKGLEWIACIYAGSTGYTYYANWAKGRFTISKTSSTTVTLQMTSLTAADTATYFCARVPYAGYVNYGYTFFNLWGPGTLVTVSS VL: AAVLTQTPSPVSAPVGGTVTISCQSSQSVYRTNDLAWYQQKPGQPPKLLIYWASKLAAGVPSRFKGSGSGTQFTLTISGVQCDDAATYYCLGGYYDDGDLNAFGGGTEVVVN | binds

Biological target: T1, recombinant human ORF1p (LINE-1 open …)
Assay: SPR (Biacore 8K), ORF1p immobilized on CM5, single-cycle kinetics, 1:1 fit
Experimental: Surface plasmon resonance (SPR) assays. Binding kinetics (kₐ, kd, and KD) of antibody and nanobody constructs for ORF1p were obtained on a Biacore 8K instrument (Cytiva). Recombinant ORF1p was immobilized on a Series S CM5 sensor chip at 1.5 μg/ml using EDC/NHS coupling chemistry according to the manufacturer's guidelines. Nanobodies and antibodies were prepared as analytes and run in buffer containing 20 mM HEPES pH 7.4, 150 mM NaCl, and 0.05% Tween-20. Analytes were injected at 30 μl/min in single-cycle kinetics experiments at concentrations of 0.1, 0.3, 1, 3.3, and 10 nM, with association times of 120-180 sec, and a dissociation time of 1200-7200 sec, depending on observed off-rate. Residual bound protein was removed between experiments using 10 mM glycine-HCl pH 3.0. Data were analyzed using Biacore software, fitting a Langmuir 1:1 binding model to sensorgrams to calculate kinetic parameters.

Row | Kd [nM] | Binder
7 | 0.027 | anti-ORF1 Nb trimer Nb5-Nb5-Nb5 (MT996) (bispecific antibody, Homotrimeric tandem nanobody; also called Nb 5-5-5) QVQLVESGGDLVQAGGSLRLSCAVSGGTSSNYGMGWFRQAPGKEREFVSSISWSGSRTLYSDSVKGRFTISRDNAKNTVDLQMNSLKPEDTAVYYCTAVREYRDYPQRDNFDYWGQGTQVTVSGGGGSGGGGSGGGGSGGGGSMAQVQLVESGGDLVQAGGSLRLSCAVSGGTSSNYGMGWFRQAPGKEREFVSSISWSGSRTLYSDSVKGRFTISRDNAKNTVDLQMNSLKPEDTAVYYCTAVREYRDYPQRDNFDYWGQGTQVTVSGGGGSGGGGSGGGGSGGGGSMAQVQLVESGGDLVQAGGSLRLSCAVSGGTSSNYGMGWFRQAPGKEREFVSSISWSGSRTLYSDSVKGRFTISRDNAKNTVDLQMNSLKPEDTAVYYCTAVREYRDYPQRDNFDYWGQGTQVTVSHHHHHH
8 | 0.083 | anti-ORF1 Nb dimer 4 Nb5-Nb1 (MT994) (bispecific antibody, Heterodimeric tandem nanobody, short linker; also called Nb 5-1; Nb5-1 pMT994) QVQLVESGGDLVQAGGSLRLSCAVSGGTSSNYGMGWFRQAPGKEREFVSSISWSGSRTLYSDSVKGRFTISRDNAKNTVDLQMNSLKPEDTAVYYCTAVREYRDYPQRDNFDYWGQGTQVTVSGGGGSGGGGSGGGGSGGGGSMADVQLVESGGGLVQAGESLRLSCAASGRTLSSLNMAWFRQVPGKERDFVSLISRSGSTDYVHSVRGRFTISRDNAKNTVYLEMNSLKPEDTAVYYCAADDNYNGRYPFRDEYEYWGQGTQVTVSHHHHHH
9 | 0.0098 | anti-ORF1 Nb dimer 6 Nb5-Nb5 long linker (MT997) (bispecific antibody, Homodimeric tandem nanobody, long linker of 56 residues; also called Nb 5-5 long; Nb5-5LL) QVQLVESGGDLVQAGGSLRLSCAVSGGTSSNYGMGWFRQAPGKEREFVSSISWSGSRTLYSDSVKGRFTISRDNAKNTVDLQMNSLKPEDTAVYYCTAVREYRDYPQRDNFDYWGQGTQVTVSGGGGSGGGGSGGGGSGGGGSEAAAKEAAAKEAAAKSGGGGSGGGGSGGGGSGGGGSMAQVQLVESGGDLVQAGGSLRLSCAVSGGTSSNYGMGWFRQAPGKEREFVSSISWSGSRTLYSDSVKGRFTISRDNAKNTVDLQMNSLKPEDTAVYYCTAVREYRDYPQRDNFDYWGQGTQVTVSHHHHHH
10 | 0.19 | anti-ORF1 Nanobody 10 (Nb10) (VHH, Llama nanobody) VHH: QVQLVESGGGLVQAGESLRLSCQVSGRTFSISGAGWFRQAPGKEREFVAAITWTGGYPYYATSVKGRFTIARDDPENRVYLSMNSLKPEDTAVYYCATRRAGSLDFDYAQQTRYDNWGQGTQVTVSH
11 | 0.07 | anti-ORF1 Nb dimer 3 Nb5-Nb5 (MT993) (bispecific antibody, Homodimeric tandem nanobody, short linker; also called Nb 5-5; Nb5-5) QVQLVESGGDLVQAGGSLRLSCAVSGGTSSNYGMGWFRQAPGKEREFVSSISWSGSRTLYSDSVKGRFTISRDNAKNTVDLQMNSLKPEDTAVYYCTAVREYRDYPQRDNFDYWGQGTQVTVSGGGGSGGGGSGGGGSGGGGSMAQVQLVESGGDLVQAGGSLRLSCAVSGGTSSNYGMGWFRQAPGKEREFVSSISWSGSRTLYSDSVKGRFTISRDNAKNTVDLQMNSLKPEDTAVYYCTAVREYRDYPQRDNFDYWGQGTQVTVSHHHHHH

Further lines, the binder ahead of its results:

Row | Binder | Kd [nM]
12 | anti-ORF1 Nanobody 9 (Nb9) (VHH, Llama nanobody) VHH: QVHLVESGGKLVQAGESLKLSCEVSGRTFSISGAGWFRQAPGKEREFVAAITWTGGYPYYDASVKGRFTISREDPDNTVYLSMNSLKPEDTAVYYCATRRAGDLDFSYAQQGRYDNWGQGTQVTVSH | 0.19
13 | anti-ORF1 Nanobody 5 (Nb5) (VHH, Llama nanobody; also called Clone 5; C5) VHH: QVQLVESGGDLVQAGGSLRLSCAVSGGTSSNYGMGWFRQAPGKEREFVSSISWSGSRTLYSDSVKGRFTISRDNAKNTVDLQMNSLKPEDTAVYYCTAVREYRDYPQRDNFDYWGQGTQVTVSH | 0.11
14 | anti-ORF1 Nanobody 2 (Nb2) (VHH, Llama nanobody) VHH: DVQLVESGGGLVQAGGSLRLSCAASGRTDDIYTMGWFRQGPGKEREFVAVISWSITRRSSITHYADSVKGRFTISGENAENTVYLQMNTLKPEDTAVYYCAAKTGYSGSMSSYQDYDSWGQGTQVTVSH | 0.48
15 | anti-ORF1 Nb dimer 5 Nb5-Nb2 (MT995) (bispecific antibody, Heterodimeric tandem nanobody, short linker; also called Nb 5-2; Nb5-2 pMT995) QVQLVESGGDLVQAGGSLRLSCAVSGGTSSNYGMGWFRQAPGKEREFVSSISWSGSRTLYSDSVKGRFTISRDNAKNTVDLQMNSLKPEDTAVYYCTAVREYRDYPQRDNFDYWGQGTQVTVSGGGGSGGGGSGGGGSGGGGSMADVQLVESGGGLVQAGGSLRLSCAASGRTDDIYTMGWFRQGPGKEREFVAVISWSITRRSSITHYADSVKGRFTISGENAENTVYLQMNTLKPEDTAVYYCAAKTGYSGSMSSYQDYDSWGQGTQVTVSHHHHHH | 0.036
16 | anti-ORF1 Nb dimer 2 Nb2-Nb2 (MT992) (VHH, Homodimeric tandem nanobody, short (GGGGS)x4 linker; also called Nb 2-2; Nb2-2 pMT992) DVQLVESGGGLVQAGGSLRLSCAASGRTDDIYTMGWFRQGPGKEREFVAVISWSITRRSSITHYADSVKGRFTISGENAENTVYLQMNTLKPEDTAVYYCAAKTGYSGSMSSYQDYDSWGQGTQVTVSGGGGSGGGGSGGGGSGGGGSMADVQLVESGGGLVQAGGSLRLSCAASGRTDDIYTMGWFRQGPGKEREFVAVISWSITRRSSITHYADSVKGRFTISGENAENTVYLQMNTLKPEDTAVYYCAAKTGYSGSMSSYQDYDSWGQGTQVTVSHHHHHH | 0.0092
17 | anti-ORF1 Nanobody 21 (Nb21) (VHH, Llama nanobody) VHH: QVQLAESGGGLVQAGGSLRLSCAASGRTSTIYIMGWFRQAPGKDREFVAGITYTGGYPYYADSVQGRFTLSNDNADHTAYLQMNNLKPEDSAVYYCAARSRGGITTHERDFGSWGQGTQVTVSH | 0.24
